These results are taken from paper PMC6402988 (Nature structural & molecular biology, 2019).

Numbering of substitutions follows the chain as printed.

For test [1], the target named is T1, cleaved Ebola virus glycoprotein (EBOV GPCL) (Zaire ebolavirus, Mayinga-76).
T1 chain 1: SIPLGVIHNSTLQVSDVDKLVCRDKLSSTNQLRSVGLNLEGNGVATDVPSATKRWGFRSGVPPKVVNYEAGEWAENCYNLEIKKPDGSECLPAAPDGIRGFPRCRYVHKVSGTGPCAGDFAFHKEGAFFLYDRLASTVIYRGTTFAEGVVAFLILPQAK
T1 chain 2: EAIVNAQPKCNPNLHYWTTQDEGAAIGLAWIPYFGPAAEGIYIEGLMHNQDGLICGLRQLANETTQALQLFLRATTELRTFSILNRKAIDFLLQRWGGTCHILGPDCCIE
In words: BLI.

Test [2] addresses T1, cleaved Ebola virus glycoprotein (EBOV …). Kind of test: cell-based or functional assay.
The next test concerns the target SUDV GP ectodomain (Sudan ebolavirus; strain not named for …, UniProt Q66814). Kind of test: cell-based or functional assay.

B1: ADI-15946 IgG (antibody, V domains shown)
VH: EVQLVESGGGLVKPGGSLRLSCAASGFTFSNAWMSWVRQAPGKGLEWVGRIKSKTDGGTIDYAAPVKGRFTISRDDSKNTVYLQMTSLKTEDTAVYYCTTYTEDMRYFDWLLRGGETFDYWGQGTLVTVSS
VL: DIRLTQSPSSLSASVGDRVTITCRASHYISTYLNWYQQKPGKAPKLLIYAASNLQSGVPSRFSGSGFGTDFSLTISSLQPEDFATYHCQQSYSTPGRYTFGQGTKVEIK
Take B1: in test [1], the “fold improvement in binding (KDapp) against full-length GP” value is 10000 fold, the “fold increased kon against EBOV GPFL” value is 10 fold and the “fold slower koff against EBOV GPFL” value is more than 1000 fold. In addition, in test [2], the “neutralization potency against rVSV-EBOV GPCL compared to rVSV-EBOV GPFL” value was determined as 100 fold.

B2: 46M3 (antibody, V domains shown)
VH: B1 VH with R106A
VL: B1 VL with S65Y, F67Y
Consider B2, for which the “fold improvement in neutralization of authentic SUDV against parental ADI-15946” value with SUDV GP ectodomain was 33 fold.

B3: ADI-15946 LC^WT:HC^IGL (antibody, V domains shown)
VH: not shown
VL: B1 VL
For the molecule B3, the binding result in test [1] is given as “binds”.

B4: 46M2 (antibody, V domains shown)
VH: B1 VH with R106A
VL: B1 VL with S65Y
For the molecule B4, the “fold improvement in neutralization of authentic SUDV against parental ADI-15946” value in the test with SUDV GP ectodomain turned out to be 33 fold.
